The source of these data is patent publication US20240076370A1 (Memorial Sloan Kettering, published 2024).

The chains are these.
B1: ET150-171 scFv (scFv)
scFv: QSALTQPASVSGSPGQSITISCTGTSSDVGGYNFVSWYQQHPGKAPKVMIYDVSKRPSGISNRFSGSKSGNTASLTISGLQVEDEAEYYCSSYTSTRTVIFAGGTKVTVLGSRGGGGSGGGGSGGGGSLEMAQVQLVQSGAEVKKPGASVKVSCKASGYTFTSYYMHWVRQAPGQGLEWMGIINPSGGSTRYAQKFQGRVTMTRDTSTSTVYMELSSLRSEDTAVYYCARGSSRWGGWTGDYWGQGTLVTVSS
notes: also called ET150-21 scFv
B2: ET150-026 scFv (scFv)
scFv: AELSYELTQPPSASGTPGQRVSISCSGSSSNIGSNTVNWYQQFPGTAPKLLIHSNNQRPSGVPDRFSGSKSGTSASLAISGPQSEDEADYYCAAWDDSVNGYVFGTGTKVTVLGSRGGGGSGGGGSGGGGSLEMAQLQLQESGGGSVQPGGSLRLSCAASGFTFSNYAMSWVRQAPGKGLEWVSAITNSGRSTYYADSVKGRFTISRDNSKNTLSLQMSSLRAEDTAVYYCARVTHRRYGSTFDSRGQGTLVTVSS
notes: also called ET150-176 scFv
B3: ET150-165 scFv (scFv)
scFv: QSALTQPPSASGSPGQSVTISCTGTSSDIGGYNYVSWYQQHPGKAPKLMIYEVNKRPSGVPDRFSGSKSGNTASLTVSGLQAEDEADYYCASFAGRKTLVFGGGTKLTVLGSRGGGGSGGGGSGGGGSLEMAQVQLVQSGAEVKKPGASVKVSCRASGYTFTAYSLHWVRQAPGQGLEWMGWINPSSGGAVYAQKFQGRVTMTRDTSISTAYMELSGLRSDDTAVYYCARNVGGQADDWGQGTLVTVSS
notes: also called ET150-15 scFv
B4: ET150-167 scFv (scFv)
scFv: QSALTQPPSASGSPGQSVTISCTGTSTDIGGYNYVSWYQHHPSKAPKLMIYEVNKRPSGVPDRFSGSKSGNTASLTVSGLQAEDEADYYCASFAGRKTLVFGGGTKLTVLGSRGGGGSGGGGSGGGGSLEMAQVQLVQSGAEVKKPGASVKVSCRASGYTFTAYSLHWVRQAPGQGLEWMGWINPSSGGAVYAQKFQGRVTMTRDTSISTAYMELSGLRSDDTAVYYCARNVGGHADDWGQGTLVTVSS
notes: also called ET150-17 scFv
B5: ET150-163 scFv (scFv)
scFv: QSVVTQPPSVSGAPGQRVTISCTGSSSNIGAGYDVHWYQQLPGTAPKLLIYGNSNRPSGVPDRFSGSKSGTSASLAITGLQAEDEADYYCQSYDSSLSGSYVFGTGTKLTVLGSRGGGGSGGGGSGGGGSLEMAEVQLVETGGNLVQPGASLRLSCAASGFSFSGTAMHWVRQAPGKGLEWVSTISSTGRSTYYRDSVKGRFTISRDNSKNTLYLQMNSLRGEDTAVYYCARVSFDYWGQGTLVTVSS
notes: also called ET150-13 scFv
B6: ET150-169 scFv (scFv)
scFv: QSVVTQPPSVSAAPGQKVTISCSGSSSNIGNNYVSWYQQLPGTAPKLLIYDNNKRPSGIPDRFSGSKSGTSATLGITGLQTGDEADYYCGTWDSSLSGVVFGGGTKLTVLGSRGGGGSGGGGSGGGGSLEMAQVQLVQSGGEVKKPGASVKVSCKASGFTFNTYGISWVRQAPGQGLEWMGWISANNGHTKSAQRFQDRVAMATDTSTSTAYMELRSLKFDDTAVYYCARGGYHHQMQRYYKATSVYSDYWGQGTLVTVSS
notes: also called ET150-19 scFv
B7: ET150-161 scFv (scFv)
scFv: SYVLTQPPSASGTPGQRVTISCSGSSSNIGSNTVNWYQQLPGTAPKLLIYRNNQRPSGVPDRFSGSKSGTSASLAISGLRSEDEADYYCAAWDDSLSGLFGTGTKVTVLGSRGGGGSGGGGSGGGGSLEMAQMQLVQSGAEVKKPGASVKVSCKASEYTFTRHILHWVRQAPGQSLEWMGWINPGNGNTKYSQKFQVRVTFTRDTSASTVYMELSSLRSEDTAVYYCARLPDQWGQGTLVTVSS
notes: also called ET150-11 scFv
B8: ET150-153 scFv (scFv)
scFv: QSVLTQPPSVSAAPGQKVTIPCSGSRSNVGNYYVSWYQQLPGTAPKLLIYDNNKRPSGIPDRFSGSKSGTSATLGITGLQTGDEADYFCGTWDGSLSAHVFGTGTKVTVLGSRGGGGSGGGGSGGGGSLEMAQVQLVQSGSELKKPGASVRVSCTASGYTFTSYYMHWVRQAPGQGLEWMGVINPNAGSTRYAQKFQGRVTMSTDTSTSTAYMDLSSLRSEDTAVYYCARGMYRSLLFYDPWGQGTLVTVSS
notes: also called ET150-3 scFv
B9: ET150-033 scFv (scFv)
scFv: AELQAVLTQPPSASGTPGQRVTISCSGSSSNIGSNYVYWYQQLPGTAPKLLIYRNNQRPSGVPDRFSGSKSGTSASLAISGLRSEDEADYYCAAWDDSLSGRVFGTGTKVTVLGSRGGGGSGGGGSGGGGSLEMAQLQLVQSGAEVKKPGSSVKVSCKASGYTFNTYYLHWVRQAPGQGLEWMGRINPNNGGTNYAQKFQGRVTMTRDTSINTAYMELSRLRSDDTAVYYCARSYDYWGQGTLVTVSS
notes: also called ET150-183 scFv
B10: ET150-164 scFv (scFv)
scFv: QSALTQPPSASGSPGQSVTISCTGTSSDVGGYNYVSWYQQHPGKAPKLMIYEVSKRPSGVPDRFSGSKSGNTASLTVSGLQAEDEADYYCSSYAGSNTLVFGGGTKLTVLGSRGGGGSGGGGSGGGGSLEMAQMQLVQSGAEVKKPGASVKVSCKASGYTFTSYYMHWVRQAPGQGLEWMGIINPSGGSTSYAQKFQGRVTMTRDTSTSTVYMELSSLRSEDTAVYYCARAGMGMDTWGQGTLVTVSS
notes: also called ET150-14 scFv
B11: ET150-172 scFv (scFv)
scFv: QSALTQPPSASGSPGQSVTISCTGTSSDVGGYNYVSWYQQHPGKAPKLMIYEVSKRPSGVPDRFSGSKSGNTASLTVSGLQAEDEADYYCSSYAGSNTLVFGGGTKLTVLGSRGGGGSGGGGSGGGGSLEMAQMQLVQSGAEVKKPGASVKVSCKASGYTFTSYYMHWVRQAPGQGLEWMGIINPSGGSSSYAQKFQGRVTMTRDTSTSTVYMELSSLRSEDTAVYYCARAGMGMDTWGQGTLVTVSS
notes: also called ET150-22 scFv
B12: ET150-032 scFv (scFv)
scFv: AELQSVLTQPPSASGSPGQSLTISCTGTSSDVGGYNHVSWYQQYPGKAPKLMIYEVTKRPSGVPDRFSGSKSGNTASLTVSGLQAEDEADYYCSSYAGSAHWVFGGGTKLTVLGSRGGGGSGGGGSGGGGSLEMAEVQLVQSGAEVKKPGASVKVSCKASGYTFSRYYIHWVRQAPGQGLEWMGWMNPNSGNTGYAQKFQGRVTMTRNTSISTAYMELSSLRSEDTAVYYCARGRYHVIDYWGQGTLVTVSS
notes: also called ET150-182 scFv
B13: ET150-030 scFv (scFv)
scFv: AELQSVLTQPPSVSGAPGQRVTISCTGSSSNIGAGYDVHWYQQLPGRAPKLLIYGNSNRPSGVPDRFSGSKSGTSASLAITGLQAEDEADYYCQSYDSSLRGYVFGTGTKVTVLGSRGGGGSGGGGSGGGGSLEMAQVQLVQSGGGVVQPGRSLRLSCAASGFSFSGTAMHWVRQAPGKGLEWVSTISSTGRSTYYRDSVKGRFTISRDNSKNTLYLQMNSLRGEDTAVYYCARPVSSMTLSIQSDGWGQGTLVTVSS
notes: also called ET150-180 scFv
B14: ET150-166 scFv (scFv)
scFv: NFMLTQPHSVSESPGKTVSISCTRTSGAIAGAYVQWFQQRPGSAPTTVIYDDNKRPSGVPDRFSGSIDKSSNSASLTISGLKTEDEADYYCQSYDYDSSNVLFGGGTKLTVLGSRGGGGSGGGGSGGGGSLEMAEVQLVESGGGLVQPGGSLRLSCAASGFTFSNYAMSWVRQAPGKGLEWVSAISGSGNTYYADSVKGRFTISRDNSKNTLYLQMNSLRAEDTAVYYCARGSVRYTDIWGQGTLVTVSS
notes: also called ET150-16 scFv
B15: ET150-028 scFv (scFv)
scFv: AELQPVLTQPPSASGTPGQRVTISCSGSSSNIGGNTVSWYQQVPGTAPRLLIFRNNQRPPGVPDRFSGSKSGTSASLAISGLRSEDEADYYCAAWDASRQGVFGGGTKLTVLGSRGGGGSGGGGSGGGGSLEMAQVQLVQSGAEVKKPGSSVKVSCKASGGTFRSYAITWVRQAPGQGLEWMGRIIPMLDITNYAQKFQGRVTITADKSTSTAYMELSSLRSEDTAVYYCARTYSRSPFHMEDFWGQGTLVTVSS
notes: also called ET150-178 scFv
B16: ET150-173 scFv (scFv)
scFv: QSALTQPASVSGSPGQSITISCTGTSSDVGGYNYVSWYQQSPGKAPRLMIYGVSKRPSGVPDRFSGSKSGNTASLTVSGLQAEDEADYYCSSYAGVNNLMFGGGTKLTVLGSRGGGGSGGGGSGGGGSLEMAQVQLVQSGAEVKKPGASVKVSCKASGYTFTSYYMHWVRQAPGQGLEWMGIINPSGGSTSYAQKFQGRVTMTRDTSTSTVYMELSSLRSEDTAVYYCARDVISGFDSWGQGTLVTVSS
notes: also called ET150-23 scFv
B17: ET150-031 scFv (scFv)
scFv: AELQSVVTQPPSVSAAPGQRVTISCSGGSSNIGNNYVSWFQQLPRTAPKLLIYDNNKRPSGIPDRFSGSKSGTSAALDITVLQTGDEADYYCGTWDSSLRNWVFGGGTKLTVLGSRGGGGSGGGGSGGGGSLEMAQMQLVQSGAEVKKPGASVKVSCKASGYTFTSYYMHWVRQAPGQGLEWMGIINPSGGSTSYAQKFQGRVTMTRDTSTSTVYMELSSLRSEDTAVYYCARGQKYHSQYSRGGTGGGMTQDMWGQGTLVTVSS
notes: also called ET150-181 scFv
B18: ET150-162 scFv (scFv)
scFv: QSALTQPPSASGSPGQSVTISCTGTSRDAGGYNYFSWYQQHPGKAPKLLIYEVTKRPSGVPDRFSGSKSGKTASLTVSGLQADDEAVYYCSSYGGSNNFRVFGGGTKLTVLGSRGGGGSGGGGSGGGGSLEMAEVQLVESGGGVVRPGGSLRLSCAASGFTFGDYGMSWVRQAPGKGLEWVSGINWNGGSTGYADSVKGRFTISRDNAKNSLYLQMNSLRAEDTAVYYCARSKQDYWGQGTLVTVSS
notes: also called ET150-12 scFv
B19: ET150-160 scFv (scFv)
scFv: QSALTQPASVSGSPGQSITISCTGTSSDVGGYNYVSWYQQHPGKAPKLMIYDVSKRPSGVSNRFSGSKSGNTASLTISGLQAEDEADYYCSSYTRSSTEVFGGGTKLTVLGSRGGGGSGGGGSGGGGSLEMAEVQLVQSGAEVKKPGASVKVSCKASGYTFTSYYMHWVRQAPGQGLEWMGIINPSGGSTSYAQKFQGRVTMTRDTSTSTVYMELSSLRSEDTAVYYCARGGSKKWSGEKWRRENFDYWGQGTLVTVSS
notes: also called ET150-10 scFv

T1 sequence (Q9NZD1 whole entry): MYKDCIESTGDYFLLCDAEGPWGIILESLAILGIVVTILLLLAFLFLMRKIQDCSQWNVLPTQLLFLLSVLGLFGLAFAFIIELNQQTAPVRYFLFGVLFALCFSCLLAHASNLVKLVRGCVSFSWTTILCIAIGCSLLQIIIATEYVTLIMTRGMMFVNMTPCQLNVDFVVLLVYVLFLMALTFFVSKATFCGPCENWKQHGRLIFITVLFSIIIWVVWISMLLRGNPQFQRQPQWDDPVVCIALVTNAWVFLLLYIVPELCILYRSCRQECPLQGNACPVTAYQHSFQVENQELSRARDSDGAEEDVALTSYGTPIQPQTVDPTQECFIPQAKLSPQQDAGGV

This experiment addresses T1, human G-protein coupled receptor family C group 5 member D (GPRC5D) (human, UniProt Q9NZD1 1-345).
T1 construct: Overexpressed on 3T3 cells in the FACS assays; also called human GPRC5D; 3T3-GPRC5D
Description: FACS, scFv phage clones on 3T3 cells overexpressing GPRC5D.
B1: the binding result is recorded as “binds”.
As to B2, the binding result is given as “binds”.
To B3 belongs “binds”; to B4, “binds”; to B5, “binds”.
B6: the binding result is recorded as “binds”.
For the molecule B7, the binding result is recorded as “binds”.
Consider B8, for which the binding result is listed as “binds”.
Regarding B9, the binding result is given as “binds”.
Regarding B10, the binding result is “binds”.
To B11 belongs “binds”.
For B12 the value was “binds”.
To B13 belongs “binds”.
Regarding B14, the binding result is “binds”.
B15: the binding result is “binds”.
Turning to B16, the binding result is given as “binds”.
For B17, the binding result is on record as “binds”.
Take B18: the binding result is recorded as “binds”.
Regarding B19, the binding result is recorded as “binds”.
